Assay results taken from article PMC12621184, “Synthesis and Pharmacological Characterization of Nociceptin/Orphanin FQ Dimeric Ligands” (Journal of Medicinal Chemistry, 2025).
Bridge positions count the residues as written; N and C are the ends. Ends that are not written are not given here. Peptide text beside a SMILES is read from it. I, II: the chains in the order shown.

Columns and labels:
human NOP [1] = target: T1, human NOP (Homo sapiens, UniProt P41146); assay: NOP receptor–G protein interaction BRET assay; format: biochemical; set-up: expressed in transfected cells; host or cells: membranes of HEK293 cells stably coexpressing NOP-RLuc and Gβ1-RGFP; settings: N = 5 experiments in duplicate; for EC50: membranes from HEK293 cells coexpressing NOP-RLuc and Gβ1-RGFP, room temperature, mean (CL95%), read-out: NOP–G protein interaction pEC50 (CL95%) (converted)
T1 sequence (P41146 whole entry): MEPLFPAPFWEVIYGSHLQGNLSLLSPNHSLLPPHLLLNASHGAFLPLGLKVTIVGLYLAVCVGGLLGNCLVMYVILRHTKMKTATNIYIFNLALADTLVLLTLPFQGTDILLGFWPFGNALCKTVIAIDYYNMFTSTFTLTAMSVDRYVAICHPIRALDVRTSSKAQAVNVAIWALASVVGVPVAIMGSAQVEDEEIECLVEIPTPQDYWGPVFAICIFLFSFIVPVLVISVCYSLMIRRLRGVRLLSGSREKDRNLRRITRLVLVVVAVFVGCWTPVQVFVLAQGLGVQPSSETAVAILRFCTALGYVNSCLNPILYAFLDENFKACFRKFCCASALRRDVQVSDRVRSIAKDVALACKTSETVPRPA
Description: A BRET interaction assay was used, as previously detailed in ref , to study the propensity of ligands to evoke interaction between the NOP receptor and to G protein. Membranes taken from HEK293 cells stably coexpressing the fusoproteins NOP-RLuc and Gβ1-RGFP were used. Such cells were grown in DMEM medium supplemented with 10% FBS, 2 mM L-glutamine, […] G418, […] hygromycin B, 100 IU/mL penicillin, and 100 IU/mL streptomycin in a humidified atmosphere with 5% CO2 at 37 °C. Cell membranes were thawed and resuspended in PBS supplemented with 0.01% BSA before the assay, and an amount of 3 μg of total protein was dispensed in each of the 96 wells together with 2 μM Prolume Purple Coelenterazine. All experiments were carried out at room temperature. Ligands were added, and averaged BRET ratios from 10 min measurements were computed. BRET ratios were computed as counts per second (CPS) obtained on a Victor Nivo (PerkinElmer) with 405 (10) nm and 510 (30) nm bandpass filters. Vehicles’ BRET ratios were derived from light passed through 510 divided by that passed through 405 filters. Vehicles BRET values were subtracted from all computations, and data sets were normalized as a fraction of N/OFQ maximal effects.
(§1) Concentration-response curves to agonists were analyzed by a four-parameter logistic nonlinear regression model: Effect = baseline + (E max – baseline)/(1 + 10^((logEC50–log[ligand])slope)). […] Experimental data were expressed as mean ± sem of at least 5 experiments. Potency values were expressed as the mean and CL95%. In vitro E max values were analyzed by one-way ANOVA, while in vivo latency data were evaluated by one-way ANOVA followed by Dunnett’s post hoc test. The proportion of mice losing the righting reflex was compared by Fisher’s exact test performed on raw data. GraphPad Prism 10.0 software was used for all of the analyses. The terminology employed is consistent with the International Union of Basic and Clinical Pharmacology (IUPHAR) recommendations. ,

human NOP [2] = target: T1, human NOP; assay: Calcium mobilization assay, CHO cells with NOP receptor and chimeric G protein; format: cell-based; set-up: expressed in transfected cells; settings: for EC50: CHO cells coexpressing human NOP and Gαqi5, Fluo-4, 37 °C, mean (CL95%), N = 5 experiments in duplicate, read-out: Ca^2+ mobilization pEC50 (CL95%) (converted); for Ca^2+ mobilization E max ± sem: CHO cells coexpressing human NOP and Gαqi5, maximum change in percentage over baseline fluorescence, mean ± sem, N = 5 in duplicate
Description: Chinese hamster ovary (CHO) cells stably coexpressing the human NOP, μ, or κ opioid receptors and the Gαqi5 protein or the human δ and the GαqG66Di5 protein were used in this assay. , Cells were cultured in DMEM/F-12 (1:1) medium supplemented with 10% FBS, 2 mM L-glutamine, […], 100 IU/mL penicillin, and 100 IU/mL streptomycin. Cells were maintained at 37 °C in a humidified atmosphere with 5% CO2 and were seeded at 50 000 cells/well into 96-well black, clear-bottom plates 24 h before test. Loading for 45 min with a solution consisting of HBSS supplemented with 2.5 mM probenecid, 3 μM Fluo-4 AM, and 0.01% pluronic acid ensures the calcium-sensitive dye (Fluo-4) reaches the needed concentration inside the cell, while the exchange of the solution with 100 μL/well of buffer consisting of HBSS with 20 mM HEPES, 2.5 mM probenecid, and 500 μM Brilliant Black allows for fluorescence background to decrease. Serial dilutions of ligands were prepared in HBSS buffer with 20 mM HEPES and 0.02% bovine serum albumin (BSA) to minimize the ligands’ stickiness to plasticware. The automated microplate reader FlexStation II (Molecular Devices, CA, US) was employed at 37 °C to detect changes in fluorescence intensity. The effects of all compounds were expressed as the maximum change in percentage over the baseline fluorescence measured in samples treated with vehicles.
as §1

NOP-RLuc = NOP-RLuc (UniProt P41146); settings: for E max, NOP–G protein interaction (BRET), normalised to N/OFQ-NH2 (E max = 1): scale: fraction of the maximal effect of N/OFQ-NH2
NOP-RLuc, sequence (P41146 whole entry): as above

[3] = target: human nociceptin/orphanin FQ (N/OFQ) peptide receptor (human) (UniProt P41146)
human nociceptin/orphanin FQ (N/OFQ) peptide receptor (human), sequence (P41146 whole entry): as above

Molecule | NOP–G protein interaction E max ± sem (human NOP [1]; effects normalized to N/OFQ-NH2 (E max = 1), mean ± sem) | EC50 (human NOP [1]) | EC50 (human NOP [2]) | Ca^2+ mobilization E max ± sem (human NOP [2]) | pEC50, NOP–G protein interaction (BRET, membranes of HEK293 cells with NOP-RLuc and Gβ1-RGFP) (NOP-RLuc) | E max, NOP–G protein interaction (BRET), normalised to N/OFQ-NH2 (E max = 1) (NOP-RLuc) | E max, Ca^2+ mobilization in CHO cells with human NOP and Gαqi5 (% over baseline) [3] | pEC50, Ca^2+ mobilization in CHO cells with human NOP and Gαqi5 [3]
CC(C)C[C@H](NC(=O)[C@H](CCCCN)NC(=O)[C@H](CCCNC(=N)N)NC(=O)[C@H](C)NC(=O)[C@H](CO)NC(=O)[C@H](CCCCN)NC(=O)[C@H](CCCNC(=N)N)NC(=O)[C@H](CSSC[C@H](NC(=O)CNC(=O)[C@@H](NC(=O)[C@H](Cc1ccccc1)NC(=O)CNC(=O)CNC(=O)[C@@H](N)Cc1ccccc1)[C@@H](C)O)C(=O)N[C@@H](CCCNC(=N)N)C(=O)N[C@@H](CCCCN)C(=O)N[C@@H](CO)C(=O)N[C@@H](C)C(=O)N[C@@H](CCCNC(=N)N)C(=O)N[C@@H](CCCCN)C(=O)N[C@@H](CC(C)C)C(=O)N[C@@H](C)C(=O)N[C@@H](CC(N)=O)C(=O)N[C@@H](CCC(N)=O)C(N)=O)NC(=O)CNC(=O)[C@@H](NC(=O)[C@H](Cc1ccccc1)NC(=O)CNC(=O)CNC(=O)[C@@H](N)Cc1ccccc1)[C@@H](C)O)C(=O)N[C@@H](C)C(=O)N[C@@H](CC(N)=O)C(=O)N[C@@H](CCC(N)=O)C(N)=O [1a, [[Cys^7]N/OFQ-NH2]2] (I: H-FGGFTGCRKSARKLANQ-NH2 / II: H-FGGFTGCRKSARKLANQ-NH2; disulfide I:7-II:7) | 1.09 ± 0.09 | 1.95 nM | 26.9 nM | 293 ± 18 % over the baseline | – | – | – | –
CC(C)C[C@H](NC(=O)[C@H](CCCCN)NC(=O)[C@H](CCCNC(=N)N)NC(=O)[C@H](C)NC(=O)[C@H](CO)NC(=O)[C@H](CCCCN)NC(=O)[C@H](CSSC[C@H](NC(=O)[C@H](C)NC(=O)CNC(=O)[C@@H](NC(=O)[C@H](Cc1ccccc1)NC(=O)CNC(=O)CNC(=O)[C@@H](N)Cc1ccccc1)[C@@H](C)O)C(=O)N[C@@H](CCCCN)C(=O)N[C@@H](CO)C(=O)N[C@@H](C)C(=O)N[C@@H](CCCNC(=N)N)C(=O)N[C@@H](CCCCN)C(=O)N[C@@H](CC(C)C)C(=O)N[C@@H](C)C(=O)N[C@@H](CC(N)=O)C(=O)N[C@@H](CCC(N)=O)C(N)=O)NC(=O)[C@H](C)NC(=O)CNC(=O)[C@@H](NC(=O)[C@H](Cc1ccccc1)NC(=O)CNC(=O)CNC(=O)[C@@H](N)Cc1ccccc1)[C@@H](C)O)C(=O)N[C@@H](C)C(=O)N[C@@H](CC(N)=O)C(=O)N[C@@H](CCC(N)=O)C(N)=O [1b, [[Cys^8]N/OFQ-NH2]2] (I: H-FGGFTGACKSARKLANQ-NH2 / II: H-FGGFTGACKSARKLANQ-NH2; disulfide I:8-II:8) | – | 9.12 nM | 43.7 nM | 322 ± 20 % over the baseline | – | – | – | –
CC(C)C[C@H](NC(=O)[C@H](CCCCN)NC(=O)[C@H](CCCNC(=N)N)NC(=O)[C@H](C)NC(=O)[C@H](CO)NC(=O)[C@H](CSSC[C@H](NC(=O)[C@H](CCCNC(=N)N)NC(=O)[C@H](C)NC(=O)CNC(=O)[C@@H](NC(=O)[C@H](Cc1ccccc1)NC(=O)CNC(=O)CNC(=O)[C@@H](N)Cc1ccccc1)[C@@H](C)O)C(=O)N[C@@H](CO)C(=O)N[C@@H](C)C(=O)N[C@@H](CCCNC(=N)N)C(=O)N[C@@H](CCCCN)C(=O)N[C@@H](CC(C)C)C(=O)N[C@@H](C)C(=O)N[C@@H](CC(N)=O)C(=O)N[C@@H](CCC(N)=O)C(N)=O)NC(=O)[C@H](CCCNC(=N)N)NC(=O)[C@H](C)NC(=O)CNC(=O)[C@@H](NC(=O)[C@H](Cc1ccccc1)NC(=O)CNC(=O)CNC(=O)[C@@H](N)Cc1ccccc1)[C@@H](C)O)C(=O)N[C@@H](C)C(=O)N[C@@H](CC(N)=O)C(=O)N[C@@H](CCC(N)=O)C(N)=O [1c, [[Cys^9]N/OFQ-NH2]2] (I: H-FGGFTGARCSARKLANQ-NH2 / II: H-FGGFTGARCSARKLANQ-NH2; disulfide I:9-II:9) | – | 1.35 nM | 5.01 nM | 289 ± 18 % over the baseline | – | – | – | –
FGGFTGARKSARCLANQ-NH2 (also: homodimer: Cys13-Cys13 disulfide to second copy) [[[Cys^13]N/OFQ-NH2]2] | – | – | – | – | 9.52 pEC50 | 0.84 | 247 | 8.79 pEC50
FGGFTGARKSARKLCNQ-NH2 (also: homodimer: Cys15-Cys15 disulfide to second copy) [[[Cys^15]N/OFQ-NH2]2] | – | – | – | – | 9.71 pEC50 | 0.95 | 297 | 8.53 pEC50
FGGFTGARKCARKLANQ-NH2 (also: homodimer: Cys10-Cys10 disulfide to second copy) [[[Cys^10]N/OFQ-NH2]2] | – | – | – | – | 9.85 pEC50 | 1.07 | 305 | 8.72 pEC50
FGGFTGARCSARKLANQ-NH2 (also: homodimer: Cys9-Cys9 disulfide to second copy) [[[Cys^9]N/OFQ-NH2]2] | – | – | – | – | 8.87 pEC50 | 1.03 | 289 | 8.3 pEC50
FGGFTGCRKSARKLANQ-NH2 (also: homodimer: Cys7-Cys7 disulfide to second copy) [[[Cys^7]N/OFQ-NH2]2] | – | – | – | – | 8.71 pEC50 | 1.09 | 293 | 7.57 pEC50
FGGFTGACKSARKLANQ-NH2 (also: homodimer: Cys8-Cys8 disulfide to second copy) [[[Cys^8]N/OFQ-NH2]2] | – | – | – | – | 8.04 pEC50 | 1.04 | 322 | 7.36 pEC50
FGGFTGARKSARKLACQ-NH2 (also: homodimer: Cys16-Cys16 disulfide to second copy) [[[Cys^16]N/OFQ-NH2]2] | – | – | – | – | 9.76 pEC50 | 0.98 | 312 | 8.86 pEC50
FGGFTGARKSACKLANQ-NH2 (also: homodimer: Cys12-Cys12 disulfide to second copy) [[[Cys^12]N/OFQ-NH2]2] | – | – | – | – | 8.9 pEC50 | 1.07 | 346 | 8.52 pEC50
